Source: patent US20200165343A1 (Dana-Farber, published 2020)

T1: MICA extracellular domain (α1-α3 domains), allele not stated (human, UniProt Q29983 24-307)
T1 construct: extracellular domain; also called MICA α1-α3 domains; full-length extracellular domain
T1 sequence (looked up): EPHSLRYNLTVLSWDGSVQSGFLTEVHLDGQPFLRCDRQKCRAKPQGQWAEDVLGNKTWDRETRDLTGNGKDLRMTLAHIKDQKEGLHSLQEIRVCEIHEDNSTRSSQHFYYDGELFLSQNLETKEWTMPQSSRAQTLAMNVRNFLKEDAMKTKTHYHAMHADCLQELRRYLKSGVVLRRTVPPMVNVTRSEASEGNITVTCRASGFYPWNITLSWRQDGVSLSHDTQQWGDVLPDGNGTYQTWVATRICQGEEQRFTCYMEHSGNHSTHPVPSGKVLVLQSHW


How the values were obtained:
[1] = molecular target: MICA extracellular domain (α1-α3 domains), allele not stated (human) (UniProt Q29983); test: fluorescence ELISA (DELFIA): immobilized MICA extracellular domain, antibody titrated, biotinylated anti-mouse IgG + Europium-streptavidin
[2] = molecular target: T1, MICA extracellular domain (α1-α3 …); test: as above
Experimental: ELISA experiments were performed in DELFIA® 96-well plates (Perkin Elmer) or in Nunc Maxisorp 96-wells plates (Thermo Scientific). Wells were coated with antigens by overnight incubation at 4° C. using 100 ng of protein in 100 μl of carbonate buffer, pH 7.4. Plates were subsequently washed with 1× Tris-buffered saline-Tween buffer and incubated for 2 hours with 2% bovine serum albumin (BSA) in phosphate buffered saline (PBS), pH 7.4, or DELFIA® Assay Buffer (Perkin Elmer) at room temperature. MICA antibodies were used at 1 μg/ml, unless indicated otherwise. […] Europium fluorescence was quantified using an EnVision® microplate reader (Perkin Elmer). […] Absorbance was read at 450 nm.

Molecule | EC50 [1] [µg/mL] | EC50 [2] [µg/mL]
mAb 6D4 (anti-MICA/B antibody, clone 6D4, Biolegend; specific for the MICA α1-α2 domains) | 1 | 
mAb 7C6 (parental murine IgG2b monoclonal antibody specific for the MICA/B α3 domain) (antibody, V domains shown, Mouse hybridoma antibody; also called 7C6 mAb; 7C6-mIgG2b) VH: QIQLVQSGPELKKPGETVKVSCKASGYMFTNYAMNWVKQAPEKGLKWMGWINTHTGDPTYADDFKGRIAFSLETSASTAYLQINNLKNEDTATYFCVRTYGNYAMDYWGQGTSVTVSS VL: DIQMTQTTSSLSASLGDRVTISCSASQDISNYLNWYQQKPDGTVKLLIYDTSILHLGVPSRFSGSGSGTDYSLTISNLEPEDIATYYCQQYSKFPRTFGGGTTLEIK |  | 1
